Laboratory results from paper PMC7826273.
Positions count from the first letter of the chain named. Where two headings read alike, the source gives them in different places.

Experiments:
FmhB [1] = target: T1, FmhB (Staphylococcus aureus, UniProt Q2FVZ4 1-421); experiment: competition
T1 sequence: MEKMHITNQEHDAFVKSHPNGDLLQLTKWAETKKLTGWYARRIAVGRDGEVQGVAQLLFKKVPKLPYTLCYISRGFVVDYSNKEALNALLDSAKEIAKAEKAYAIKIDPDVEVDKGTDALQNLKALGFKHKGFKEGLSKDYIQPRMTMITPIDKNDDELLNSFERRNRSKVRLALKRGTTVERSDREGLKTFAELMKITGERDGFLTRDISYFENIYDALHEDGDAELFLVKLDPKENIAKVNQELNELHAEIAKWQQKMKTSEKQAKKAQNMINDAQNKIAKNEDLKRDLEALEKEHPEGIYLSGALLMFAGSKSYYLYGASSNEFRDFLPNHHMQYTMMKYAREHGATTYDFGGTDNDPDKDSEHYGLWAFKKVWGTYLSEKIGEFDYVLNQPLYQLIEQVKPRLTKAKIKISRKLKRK

FmhB [2] = target: T1, FmhB; experiment: competition; remark: listed apart in the source
FmhB [3] = target: T1, FmhB; experiment: competition; remark: listed apart in the source
EF-Tu (GTP form) = EF-Tu (GTP form) (UniProt P99152 1-394); experiment: competition
EF-Tu (GTP form), sequence (P99152 whole entry): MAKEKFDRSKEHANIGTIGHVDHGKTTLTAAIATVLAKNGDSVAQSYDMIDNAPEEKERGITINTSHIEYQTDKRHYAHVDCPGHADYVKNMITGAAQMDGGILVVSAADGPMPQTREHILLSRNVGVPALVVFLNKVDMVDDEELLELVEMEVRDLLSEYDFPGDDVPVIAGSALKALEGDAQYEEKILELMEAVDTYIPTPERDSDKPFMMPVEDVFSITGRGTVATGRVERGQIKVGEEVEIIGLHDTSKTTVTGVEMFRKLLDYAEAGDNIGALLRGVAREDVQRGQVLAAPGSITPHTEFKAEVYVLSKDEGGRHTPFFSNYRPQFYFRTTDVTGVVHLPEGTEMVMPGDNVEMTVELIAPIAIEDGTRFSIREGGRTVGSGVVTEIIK

FmhB [4] = target: T1, FmhB; experiment: size-exclusion chromatography
FmhB [5] = target: T1, FmhB; experiment: competition; remark: listed apart in the source

B1: CHIM3 analogue (NP2 with P1 anticodon stem-loop) (structured_RNA)
RNA: GCGGGAGUAGUUCAACUUUUAGAACACAACCUUGCCAAGGUUGAGGUAUAGGUGUAAAUCCUAUCUUCCGCUCCA
modifications: 2'-triazole-nonadiyne on terminal A; penultimate C is dC
Ki (FmhB [1]): 5.4 ± 0.3 nM

B2: CHIM5 analogue (NP2 with P1 anticodon stem-loop and acceptor stem) (structured_RNA)
RNA: B1 RNA with G3A, G5A, C69U
modifications: 2'-triazole-nonadiyne on terminal A; penultimate C is dC
Ki (FmhB [1]): 19 ± 2 nM

B3: CHIM4 analogue (P1 with NP2 anticodon stem-loop) (structured_RNA)
RNA: GCAGAAGUAGUUCAGCGGUAGAAUACGUUCCUUCCCGGAACGGGGUCGCGGGUUCGAAUCCCGUCUUCUGCUCCA
modifications: 2'-triazole-nonadiyne on terminal A; penultimate C is dC
Ki (FmhB [1]): 220 ± 40 nM

B4: NP2 stable Gly-tRNA analogue, 2' isomer (structured_RNA)
RNA: GCGGGAGUAGUUCAACUUUUAGAACACGUUCCUUCCCGGAACGAGGUAUAGGUGUAAAUCCUAUCUUCCGCUCCA
modifications: 2'-(1,4-triazole-alkyne; nonadiyne) on terminal A; penultimate C is dC (pdCpA ligation)
Ki (FmhB [2]): 8.6 ± 2 nM

B5: CHIM1 analogue (NP2 with P1 acceptor stem) (structured_RNA)
RNA: B4 RNA with G3A, G5A, U55C, C69U
modifications: 2'-triazole-nonadiyne on terminal A; penultimate C is dC
Ki (FmhB [1]): 7.6 ± 0.7 nM

B6: NP2 stable Gly-tRNA analogue, 3' isomer (structured_RNA)
RNA: B4 RNA
modifications: 3'-(1,4-triazole-alkyne; nonadiyne) on terminal A; penultimate C is dC (pdCpA ligation)
Ki (FmhB [3]): 110 ± 6 nM

B7: Gly-tRNAGly P1 (structured_RNA)
RNA: GCAGAAGUAGUUCAGCGGUAGAAUACAACCUUGCCAAGGUUGGGGUCGCGGGUUCGAAUCCCGUCUUCUGCUCCA
modifications: 3'-glycyl ester
binding signal (EF-Tu (GTP form)): 14 ± 3 % residual FmhB activity at 4 uM EF-Tu

B8: CHIM2 analogue (P1 with NP2 acceptor stem) (structured_RNA)
RNA: B7 RNA with A3G, A5G, U69C
modifications: 2'-triazole-nonadiyne on terminal A; penultimate C is dC
Ki (FmhB [1]): 1000 ± 160 nM

B9: P1 stable Gly-tRNA analogue, 2' isomer (structured_RNA)
RNA: B7 RNA
modifications: 2'-(1,4-triazole-alkyne; nonadiyne) on terminal A; penultimate C is dC (pdCpA ligation)
Ki (FmhB [3]): 320 ± 10 nM

B10: tRNAGly P1 (GCC-1), unacylated (structured_RNA)
RNA: B7 RNA
binding result (FmhB [4]): no binding

B11: P1_1 analogue (P1 with NP2 region 1) (structured_RNA)
RNA: GCAGAAGUAGUUCAACUUUUAGAAUACAACCUUGCCAAGGUUGGGGUGCGGGUUCGAAUCCCGUCUUCUGCUCCA
modifications: stable triazole-nonadiyne analogue (2' isomer presumed)
binding signal (FmhB [5]): 2 ± 0.3 fold reduction in Ki vs P1 analogue
